From the RNAGym collection of RNA variant scans (doi:10.7554/elife.90254)

B1: LINE1-full (parent)
chain: UACGUAGGUGGUUUUCCCCUGAUAGUGCUAAGGGGGCCUGGAAGUUUGGACUGGGCAGAGCUCAACACAGCGUGGCAAAGUGGCUGUGGCUAGACUGCCUCUCUGGAUUCCUCGUCACUCAGCAGGGCAUCUCUGAGAGAAAUGCC

Variants of: B1
Assay: self-cleavage, relative activity (ratio to wild type); higher = more cleavage; in vitro, sequencing; the parent is a self-cleaving ribozyme

Variant	self-cleavage
U1G U52C	2.63
U52G C110G	1.31
C51G U96A	0.05
U130A A138U	1.64
A31U A78G	0.94
A64U A141G	0.32
A50G	0.9
G72C C90U	0.03
C18U U45C	0.57
C3U U115A	0.72
U5C C123U	0.45
A67C U130C	0.04
U109A C145G	0.98
U9G A65G	0.25
C113U A138G	1.54
A24G C37U	0.83
U26C C146U	1.68
C84U A140G	0.07
C76U C98U	0.61
G55C C146U	0.25
U45G A78G	1.13
U47C A124G	1.59
A57U A79G	0.06
U1C U45A	0.84

Variant	self-cleavage
U14G A78G	1.23
U15C A65G	0.1
U26G A121C	1.31
G48U U134C	1.14
A57U U115A	0.09
A94G C133A	0.46
C68U A129C	0.22
G11A	1.31
C99G	0.76
A31U C63G	0
U5A U119C	0.9
G21U A94G	0.18
U14A U115A	0.7
A92G A140G	0.15
A107U U143A	1.48
A79G U81C	0.27
A78G U132A	1.62
G40A U85A	0.02
G44U A64G	0.12
A57C A67U	0.14
A79G U109A	1.19
U39A A92U	0.57
U39A A92G	0.1
U26C G32A	1.03

Variant	self-cleavage
U13C C61U	0
A69G C113A	0.48
U29C U39G	0.51
U87C A142G	0.25
A22G U96A	0.13
U115A A121G	1.47
U13C G55A	0.23
U85A U115C	0.13
G72A G122A	1.6
A42G U104A	1.13
U109A G125A	1.34
U12C U109A	1.49
G34A A79G	1.11
A140U A142G	1.73
A65G U134C	0.06
U52A U87C	0.29
U73A G83A	0.53
U52A U104C	1.36
U13C A138G	1.6
U96C G97A	0.02
U47C A67G	0.88
G27U U73C	1.51
A22G U91C	0.65
G21A G82A	2

Variant	self-cleavage
U62C U109A	0.03
U62C U109C	0.08
A30G C71U	0.85
G82A U85A	0.14
A69U U143A	0.04
G32A A92U	0.75
U47C G72U	2.51
G40C C146U	1.54
U96A C123U	0.06
A30G U52A	1.21
A6G U108C	0.79
U26C G125A	1.61
A43U U132C	1.26
U45C G74A	1.25
A64U A94C	0.05
U102C C113G	1.08
A94U C113U	0.12
U47G U62A	0.03
G105U U109C	1.93
C38U U134C	1.14
U20C G88A	0.06
A6G U62G	0.11
U73G U134A	0.88
A67U G89A	0.03

Variant	self-cleavage
U14C G75A	0.82
A65C	0.04
U5C G80A	2.24
A31U U102A	1.91
C76A A141G	2.26
C17G U91C	0.38
U96C U119C	0.22
U26C A138G	1.78
U26C A138U	1.57
U12A A31U	2
U20C U26C	1.26
U15C G144U	1.61
C123A A129U	1.31
A64G U112A	0.16
A117U U132A	1.32
C131G A142G	0.36
C103U A117C	2.49
A24G A92C	0
U100C U143G	2.85
A79G A129U	1.16
C76U U132A	2.54
U12A G70A	0.18
G55C A142G	0.06
A64U U130G	0.43

Variant	self-cleavage
U9G U13G	1.31
U73A G137A	1.7
G41A U112C	1.67
U1A U23C	2.04
U39C G53U	1.26
U73C A129U	2.11
U26C G33A	0.7
U14A A42G	0.98
G25A A92U	0.25
U134A A138G	1.63
C103U A140G	1.44
A50U U102A	1.63
G35A A141G	1.39
G34A U115A	1.08
G34A U115C	2.03
U1A G127C	1.51
U12C G72A	1.25
U47C A69C	0.07
A50G U115A	0.95
U5C U73C	1.16
A94U U102C	0.16
A69G A136C	0.49
U26A A136G	1.57
G89A A140G	0.06

Variant	self-cleavage
G49U U143C	0.84
U100G U104A	1.17
U73A U100A	0.97
G8A A22G	1
G21A A31U	1.43
C56A A124G	0.03
A77G U96A	0.13
A6G G106U	1.06
U73C U115A	1.58
U12A U143C	1.14
A50G A77G	1.42
U9C A92G	0.1
U52C U132G	1.93
U45A U134A	1.11
U15A U73C	1.06
U91A U130C	0.79
U14C G33U	1.14
A59C U108C	1.28
U45G U112C	1.38
A43G A94C	0.14
G80A A124U	2.27
U13C A65C	0.15
U15G A138G	0.53
